Results reported in PMC4432619.
Each block holds one substance with its values, some of them ahead of it.

Key:
[1] = molecular target: FMNL2 1–489 (N-terminal FMNL2 construct including the coiled coil domain) (human) (UniProt Q96PY5); assay: SEC; analytical gel filtration, Superdex S200 (10/300 GL), typically 100 μg of each protein, 20 mM Tris/HCl pH 8.0, 150 mM NaCl, 1 mM DTE (2.5 mM MgCl2 with Rho GTPases), 0.5 ml/min, 293 K
[2] = molecular target: FMNL1N (FMNL1 2–385, GBD–FH3) (human) (UniProt O95466); assay: ITC; GppNHp-loaded GTPase at 500 μM injected from the syringe into 50 μM FMNL in the cell; 20 mM Tris/HCl pH 8, 150 mM NaCl, 5 mM MgCl2, 1 mM DTE, 298 K; MicroCal iTC200
[3] = molecular target: FMNL1NCC (FMNL1 1–458, GBD-FH3-CC) (human) (UniProt O95466); assay: as above
Target sequence in this assay (O95466 1-458): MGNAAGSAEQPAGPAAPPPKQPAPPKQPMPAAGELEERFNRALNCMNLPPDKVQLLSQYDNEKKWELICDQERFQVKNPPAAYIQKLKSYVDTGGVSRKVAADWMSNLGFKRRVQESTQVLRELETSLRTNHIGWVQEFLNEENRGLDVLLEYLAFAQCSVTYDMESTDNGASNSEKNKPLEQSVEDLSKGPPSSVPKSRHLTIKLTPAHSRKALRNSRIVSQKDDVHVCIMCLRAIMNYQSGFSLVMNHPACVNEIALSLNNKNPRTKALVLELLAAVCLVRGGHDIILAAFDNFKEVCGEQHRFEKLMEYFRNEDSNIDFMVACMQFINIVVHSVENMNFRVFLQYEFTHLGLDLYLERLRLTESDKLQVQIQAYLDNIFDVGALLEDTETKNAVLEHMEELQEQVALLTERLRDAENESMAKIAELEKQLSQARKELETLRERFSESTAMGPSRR

[4] = molecular target: FMNL2N(S171DD) (residues 1–379) (human) (UniProt Q96PY5); assay: as above
[5] = molecular target: FMNL1NCC (FMNL1 1–458, GBD-FH3-CC) (human) (UniProt O95466); assay: SEC; analytical gel filtration, Superdex S200 (10/300 GL), typically 100 μg of each protein, 20 mM Tris/HCl pH 8.0, 150 mM NaCl, 1 mM DTE (2.5 mM MgCl2 with Rho GTPases), 0.5 ml/min, 293 K

Chain of FMNL1N (FMNL1 2–385, GBD–FH3) (human) (O95466 2-385): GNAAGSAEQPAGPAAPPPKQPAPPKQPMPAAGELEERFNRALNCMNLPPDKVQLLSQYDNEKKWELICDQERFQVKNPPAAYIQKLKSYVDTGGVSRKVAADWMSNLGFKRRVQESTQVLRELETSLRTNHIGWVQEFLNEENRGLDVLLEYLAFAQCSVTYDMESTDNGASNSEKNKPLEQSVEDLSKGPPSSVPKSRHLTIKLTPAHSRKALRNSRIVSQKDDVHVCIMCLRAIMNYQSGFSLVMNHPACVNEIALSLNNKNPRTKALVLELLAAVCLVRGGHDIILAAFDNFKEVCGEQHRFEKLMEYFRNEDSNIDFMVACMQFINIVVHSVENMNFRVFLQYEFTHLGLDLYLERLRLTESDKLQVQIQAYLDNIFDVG
Chain of Cdc42 (1–179) (P60953 1-179): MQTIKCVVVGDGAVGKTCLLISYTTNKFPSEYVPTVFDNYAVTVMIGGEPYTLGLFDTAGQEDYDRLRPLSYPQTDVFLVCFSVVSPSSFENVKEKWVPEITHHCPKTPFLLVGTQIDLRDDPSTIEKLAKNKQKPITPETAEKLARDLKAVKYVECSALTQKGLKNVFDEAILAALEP
Chain of FMNL1NCC (FMNL1 1–458, GBD-FH3-CC) (O95466 1-458): as the sequence (O95466 1-458) above

stoichiometry N [1]: 2
Substance: FMNL2 1–489 (N-terminal FMNL2 construct including the coiled coil domain) (from UniProt Q96PY5 1-489) (domain or fragment)

Kd [2]: 6.13 µM
dH [2]: -5.08 kcal/mol
stoichiometry N [2]: 0.28
Kd [3]: 2.55 µM
dH [3]: -5.48 kcal/mol
stoichiometry N [3]: 0.37
Kd [4]: 0.79 µM
dH [4]: -4.06 kcal/mol
stoichiometry N [4]: 1.05
Substance: Cdc42 (1–179) (from UniProt P60953 1-179) (domain or fragment)

stoichiometry N [5]: 2
Substance: FMNL1NCC (FMNL1 1–458, GBD-FH3-CC) (from UniProt O95466 1-458) (domain or fragment)
